# The supplement of paper PMC10201428
# ± gives the standard deviation of the averaged measurements.
# Key:
# [1] = test system: VchCAST RNA-guided transposition machinery (E. coli BL21(DE3) host, lacZ target); test: relative integration efficiency (T-RL orientation) vs wild-type transposon end (log2 (normalized fold change)); transposon end mutated: left end; higher = more efficient transposition
# How it was run: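 Each barcoded pool, 1549 left-end or 1849 right-end transposon variants in a pUC57 mini-transposon donor, went into E. coli BL21(DE3) with a T7-driven effector plasmid (CRISPR array, tniQ-cas8-cas7-cas6, tnsA-tnsB-tnsC). Plates contained 0.1 mM IPTG and were held at 37°C for 18 h. Input plasmids and genomic integration junctions were PCR-amplified and read by Illumina sequencing, with two biological output replicates and four reference barcodes. Relative integration efficiency is the fold change of output over input barcode abundance, normalised to the reference barcodes and log-transformed.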
# [2] = test system: VchCAST RNA-guided transposition machinery (E. coli BL21(DE3) host, lacZ target); test: relative integration efficiency (T-LR orientation) vs wild-type transposon end (log2 (normalized fold change)); transposon end mutated: left end; higher = more efficient transposition
# Procedure: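 Pooled, barcoded VchCAST (Tn6677) mini-transposon donor libraries; each variable transposon-end sequence sits in a fixed pDonor mini-transposon context (10-bp barcode and cargo not included). Left- or right-end libraries were co-transformed with pEffector (TniQ-Cascade, TnsABC, lacZ crRNA, T7, 0.1 mM IPTG) into E. coli BL21(DE3) and grown 18 h at 37 C. T-LR and T-RL junction amplicons were sequenced; output/input barcode fold change was normalised to the mean of four wild-type barcodes and log2-transformed. Two biological replicates; zero-count/undetected variants carry floor values (-10 / -15), censored here. Barcode uncoupling by PCR recombination adds noise.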
Sequence,relative integration efficiency (log2) [1],relative integration efficiency (log2) [2]
AATGTTGTTGATGCAACCATAAAGTGATATTTAAAGTACAGCGCGACTGAACTCATCATTAAAACGACAACCATATATTGATATCTCACAAAACAACCATAAGTTGATATTTTTGTGAATCGAGTATTTCAGCAAAACTACTGCAGTAAGAA,-2.4 ± 1.2,-0.487 ± 1.5
AATGTTGTTGATGCAACCATAAAGTGATATTTAAATTGTGAGCGGATAACAATTCTTAACCACAAAACAACCATATATTGATATCTCACAAAACAACCATAAGTTGATATTTTTGTGAATCGAGTATTTCAGCAAAACTACTGCAGTAAGAA,-3.08 ± 0.73,-3.23 ± 0.83
AATGTTGTTGATGCAACCATAAAGTGATATTTAACAACCATAAAGTGATATTTAACTTAACCACAAACAACCATATATTGATATCTCACAAAACAACCATAAGTTGATATTTTTGTGAATCGAGTATTTCAGCAAAACTACTGCAGTAAGAA,-2.56 ± 0.5,1.37 ± 1.1
AATGTTGTTGATGCAACCATAAAGTGATATTTAACAACCATATATTGATATCTCACAAAACAACCATAAGTTGATATTTTTAATTATTTATAATCAGCAACTTAACCACAAAATGTGAATCGAGTATTTCAGCAAAACTACTGCAGTAAGAA,-1.58 ± 0.69,-0.212 ± 1.1
AATGTTGTTGATGCAACCATAAAGTGATATTTAACAACCATATATTGATATCTCACAAAACAACCATAAGTTGATATTTTTGTGAATCGAGTATTTCAGCAAAACTACTGCAGTAAGAAAGTTACTTCGTGGTATGGGAGGATCAAGGAGCC,-2.74 ± 1,-0.0605 ± 1
AATGTTGTTGATGCAACCATAAAGTGATATTTAACAACCATATATTGATATCTCTAATTATTTATAATCAGCAACTTAACCACAAAAACAAAACAACCATAAGTTGATATTTTTGTGAATCGAGTATTTCAGCAAAACTACTGCAGTAAGAA,-2.13 ± 0.82,-0.167 ± 0.77
AATGTTGTTGATGCAACCATAAAGTGATATTTAACAAGACTAACATTATTAGTAACTGAGAACTATGCAACCATATATTGATATCTCACAAAACAACCATAAGTTGATATTTTTGTGAATCGAGTATTTCAGCAAAACTACTGCAGTAAGAA,-2.4 ± 0.87,-2.85 ± 0.45
AATGTTGTTGATGCAACCATAAAGTGATATTTAACTCTCTTCTTTAGCAGTCTAGTCTATTGAAACTCAACCATATATTGATATCTCACAAAACAACCATAAGTTGATATTTTTGTGAATCGAGTATTTCAGCAAAACTACTGCAGTAAGAA,-3.73 ± 1.2,-5.31 ± 0.24
AATGTTGTTGATGCAACCATAAAGTGATATTTAAGCCGGCGGGCGCCGACTACCAGGCCAACACCCCACCAACGCGCGGTCGCGAGACACCCCACCAACGCCTGGTCGCGGGGGTGTCCGATCTGATTTCAGCAAAACTACTGCAGTAAGAA,-6.95 ± 1.1,-5.38 ± 1
AATGTTGTTGATGCAACCATAAAGTGATATTTAAGCTATACTCTAGGTATCTAACTTGTCCCATTGCCAACCATATATTGATATCTCACAAAACAACCATAAGTTGATATTTTTGTGAATCGAGTATTTCAGCAAAACTACTGCAGTAAGAA,-4.82 ± 1.4,-3.91 ± 1.4
AATGTTGTTGATGCAACCATAAAGTGATATTTAAGTACTGCGCGTCTGAAGTCATCTTTAAACCGAACAACCATATATTGATATCTCACAAAACAACCATAAGTTGATATTTTTGTGAATCGAGTATTTCAGCAAAACTACTGCAGTAAGAA,-3.55 ± 0.95,-3.06 ± 1.1
AATGTTGTTGATGCAACCATAAAGTGATATTTAATAACAACCATAAAGTGATATTTAACTTAACCACCAACCATATATTGATATCTCACAAAACAACCATAAGTTGATATTTTTGTGAATCGAGTATTTCAGCAAAACTACTGCAGTAAGAA,-4.66 ± 1.1,-3.39 ± 0.26
AATGTTGTTGATGCAACCATAAAGTGATATTTAATAACAACCATATATTGATATCTCACAAAACAACCATAAGTTGATATTTTTGTGAATCGAGTATTTCAGCAAAACTACTGCAGTAAGAAAGTTACTTCGTGGTATGGGAGGATCAAGGA,-5.54 ± 1.1,-3.02 ± 1.5
AATGTTGTTGATGCAACCATAAAGTGATATTTAATAACAACCATATATTGATATCTCACAAAACAACCATAAGTTGATATTTTTTATTTATAATCAGCAACTTAACCACAAAATGTGAATCGAGTATTTCAGCAAAACTACTGCAGTAAGAA,-3.74 ± 0.68,-1.89 ± 1
AATGTTGTTGATGCAACCATAAAGTGATATTTAATAACAACCATATATTGATATCTCTTATTTATAATCAGCAACTTAACCACAAAAACAAAACAACCATAAGTTGATATTTTTGTGAATCGAGTATTTCAGCAAAACTACTGCAGTAAGAA,-3.58 ± 1,-2.07 ± 1.8
AATGTTGTTGATGCAACCATAAAGTGATATTTAATAACTTCGTATAAAGTATCCTATACGAAGTTATCAACCATATATTGATATCTCACAAAACAACCATAAGTTGATATTTTTGTGAATCGAGTATTTCAGCAAAACTACTGCAGTAAGAA,-2.17 ± 0.99,-2.99 ± 2.4
AATGTTGTTGATGCAACCATAAAGTGATATTTAATAACTTCGTATAAGGTATACTATACGAAGTTATCAACCATATATTGATATCTCACAAAACAACCATAAGTTGATATTTTTGTGAATCGAGTATTTCAGCAAAACTACTGCAGTAAGAA,-3.34 ± 1.1,-3.52 ± 1.1
AATGTTGTTGATGCAACCATAAAGTGATATTTAATAACTTCGTATAATGTATACTATACGAAGTTATCAACCATATATTGATATCTCACAAAACAACCATAAGTTGATATTTTTGTGAATCGAGTATTTCAGCAAAACTACTGCAGTAAGAA,-3.05 ± 1.2,-2.57 ± 2.1
AATGTTGTTGATGCAACCATAAAGTGATATTTAATAACTTCGTATAATGTATCGTATACGAACGGTACAACCATATATTGATATCTCACAAAACAACCATAAGTTGATATTTTTGTGAATCGAGTATTTCAGCAAAACTACTGCAGTAAGAA,-3.32 ± 0.82,-4.18 ± 0.64
AATGTTGTTGATGCAACCATAAAGTGATATTTAATAACTTCGTATAATGTATGCTATACGAAGTTATCAACCATATATTGATATCTCACAAAACAACCATAAGTTGATATTTTTGTGAATCGAGTATTTCAGCAAAACTACTGCAGTAAGAA,-2.95 ± 1.1,-3.76 ± 2.9
AATGTTGTTGATGCAACCATAAAGTGATATTTAATAACTTCGTATAGGATACTTTATACGAAGTTATCAACCATATATTGATATCTCACAAAACAACCATAAGTTGATATTTTTGTGAATCGAGTATTTCAGCAAAACTACTGCAGTAAGAA,-3.72 ± 1.3,-3.99 ± 1.5
AATGTTGTTGATGCAACCATAAAGTGATATTTAATAACTTCGTATAGTATACATTATACGAAGTTATCAACCATATATTGATATCTCACAAAACAACCATAAGTTGATATTTTTGTGAATCGAGTATTTCAGCAAAACTACTGCAGTAAGAA,-2.92 ± 1,-4.118 ± 0.013
AATGTTGTTGATGCAACCATAAAGTGATATTTAATAACTTGGTATAGCATACATTATACGAACGGTACAACCATATATTGATATCTCACAAAACAACCATAAGTTGATATTTTTGTGAATCGAGTATTTCAGCAAAACTACTGCAGTAAGAA,-3.71 ± 1.4,-4.2 ± 0.86
AATGTTGTTGATGCAACCATAAAGTGATATTTAATAAGGCGGGCGCCGACTACCAGGCCAACACCCCACCAACGCGCGGTCGCGAGACACCCCACCAACGCCTGGTCGCGGGGGTGTCCGATCTGATTTCAGCAAAACTACTGCAGTAAGAA,-7.05 ± 1.6,-3.73 ± 1.5
AATGTTGTTGATGCAACCATAAAGTGATATTTAATAATCAACCATAAAGTGATATTTAACTTAACCACAACCATATATTGATATCTCACAAAACAACCATAAGTTGATATTTTTGTGAATCGAGTATTTCAGCAAAACTACTGCAGTAAGAA,-2.68 ± 0.72,-4.25 ± 0.83
AATGTTGTTGATGCAACCATAAAGTGATATTTAATAATCAACCATATATTGATATCTCACAAAACAACCATAAGTTGATATTTTTGTGAATCGAGTATTTCAGCAAAACTACTGCAGTAAGAAAGTTACTTCGTGGTATGGGAGGATCAAGG,-7.79 ± 2.1,< -10
AATGTTGTTGATGCAACCATAAAGTGATATTTAATAATCAACCATATATTGATATCTCTATTTATAATCAGCAACTTAACCACAAAAACAAAACAACCATAAGTTGATATTTTTGTGAATCGAGTATTTCAGCAAAACTACTGCAGTAAGAA,-2.9 ± 1.1,-0.761 ± 1
AATGTTGTTGATGCAACCATAAAGTGATATTTAATAATCAACTGTATATAAATACAGTTCCACAAAACAACCATATATTGATATCTCACAAAACAACCATAAGTTGATATTTTTGTGAATCGAGTATTTCAGCAAAACTACTGCAGTAAGAA,-4.85 ± 1.1,-5.77 ± 0.6
AATGTTGTTGATGCAACCATAAAGTGATATTTAATAATGCGGGCGCCGACTACCAGGCCAACACCCCACCAACGCGCGGTCGCGAGACACCCCACCAACGCCTGGTCGCGGGGGTGTCCGATCTGATTTCAGCAAAACTACTGCAGTAAGAA,-7.04 ± 1.2,-5.9 ± 3.3
AATGTTGTTGATGCAACCATAAAGTGATATTTAATAATGGAATTGTGAGCGGATAACAATTACAAAACAACCATATATTGATATCTCACAAAACAACCATAAGTTGATATTTTTGTGAATCGAGTATTTCAGCAAAACTACTGCAGTAAGAA,-4.89 ± 0.52,-3.41 ± 0.6
